Test results as given in patent US20120108796A1 (Bayer, published 2012).

Biological target: T1, recombinant TFPI of the FXa restoring assay (human, mouse or rat; species not stated for Tables 9 and 10)
Assay: cell-based or functional assay

Binder | IC 50, FXa restoring assay | Improvement of IC50 vs 4B7wt | Improvement of IC50 vs 2A8wt
4B7 wild-type Fab (Fab, V domains shown) VH: QVQLQQSGPGLVKPSQTLSLTCAISGDSVSSNSAAWSWIRQSPGRGLEWLGIIYKRSKWYNDYAVSVKSRITINPDTSKNQFSLQLNSVTPEDTAVYYCARWHSDKHWGFDYWGQGTLVTVSS VL: DIVMTQSPLSLPVTPGEPASISCRSSQSLVFSDGNTYLNWYLQKPGQSPQLLIYKGSNRASGVPDRFSGSGSGTDFTLKISRVEAEDVGVYYCQQYDSYPLTFGQGTKVEIKR | 1.46 µg/mL | 1 fold | –
4B7 HC D62R (Fab, V domains shown) VH: QVQLQQSGPGLVKPSQTLSLTCAISGDSVSSNSAAWSWIRQSPGRGLEWLGIIYKRSKWYNRYAVSVKSRITINPDTSKNQFSLQLNSVTPEDTAVYYCARWHSDKHWGFDYWGQGTLVTVSS VL: DIVMTQSPLSLPVTPGEPASISCRSSQSLVFSDGNTYLNWYLQKPGQSPQLLIYKGSNRASGVPDRFSGSGSGTDFTLKISRVEAEDVGVYYCQQYDSYPLTFGQGTKVEIKR | 0.058 µg/mL | 25 fold | –
2A8 wild-type Fab (Fab, V domains shown) VH: QVQLVESGGGLVQPGGSLRLSCAASGFTFRSYGMSWVRQAPGKGLEWVSSIRGSSSSTYYADSVKGRFTISRDNSKNTLYLQMNSLRAEDTAVYYCARKYRYWFDYWGQGTLVTVSS VL: DIELTQPPSVSVAPGQTARISCSGDNLRNYYAHWYQQKPGQAPVVVIYYDNNRPSGIPERFSGSNSGNTATLTISGTQAEDEADYYCQSWDDGVPVFGGGTKLTVLG | 0.7 µg/mL | – | 1 fold
2A8 HC S35D (Fab, V domains shown) VH: QVQLVESGGGLVQPGGSLRLSCAASGFTFRSYGMDWVRQAPGKGLEWVSSIRGSSSSTYYADSVKGRFTISRDNSKNTLYLQMNSLRAEDTAVYYCARKYRYWFDYWGQGTLVTVSS VL: DIELTQPPSVSVAPGQTARISCSGDNLRNYYAHWYQQKPGQAPVVVIYYDNNRPSGIPERFSGSNSGNTATLTISGTQAEDEADYYCQSWDDGVPVFGGGTKLTVLG | 0.55 µg/mL | – | 1.1 fold
2A8 HC K99L (Fab, V domains shown) VH: QVQLVESGGGLVQPGGSLRLSCAASGFTFRSYGMSWVRQAPGKGLEWVSSIRGSSSSTYYADSVKGRFTISRDNSKNTLYLQMNSLRAEDTAVYYCARLYRYWFDYWGQGTLVTVSS VL: DIELTQPPSVSVAPGQTARISCSGDNLRNYYAHWYQQKPGQAPVVVIYYDNNRPSGIPERFSGSNSGNTATLTISGTQAEDEADYYCQSWDDGVPVFGGGTKLTVLG | 0.181 µg/mL | – | 3.9 fold
2A8 HC S54F (Fab, V domains shown) VH: QVQLVESGGGLVQPGGSLRLSCAASGFTFRSYGMSWVRQAPGKGLEWVSSIRGFSSSTYYADSVKGRFTISRDNSKNTLYLQMNSLRAEDTAVYYCARKYRYWFDYWGQGTLVTVSS VL: DIELTQPPSVSVAPGQTARISCSGDNLRNYYAHWYQQKPGQAPVVVIYYDNNRPSGIPERFSGSNSGNTATLTISGTQAEDEADYYCQSWDDGVPVFGGGTKLTVLG | 0.35 µg/mL | – | 2 fold
2A8 HC K99V (Fab, V domains shown) VH: QVQLVESGGGLVQPGGSLRLSCAASGFTFRSYGMSWVRQAPGKGLEWVSSIRGSSSSTYYADSVKGRFTISRDNSKNTLYLQMNSLRAEDTAVYYCARVYRYWFDYWGQGTLVTVSS VL: DIELTQPPSVSVAPGQTARISCSGDNLRNYYAHWYQQKPGQAPVVVIYYDNNRPSGIPERFSGSNSGNTATLTISGTQAEDEADYYCQSWDDGVPVFGGGTKLTVLG | 0.39 µg/mL | – | 1.6 fold
2A8 LC D91K (Fab, V domains shown) VH: QVQLVESGGGLVQPGGSLRLSCAASGFTFRSYGMSWVRQAPGKGLEWVSSIRGSSSSTYYADSVKGRFTISRDNSKNTLYLQMNSLRAEDTAVYYCARKYRYWFDYWGQGTLVTVSS VL: DIELTQPPSVSVAPGQTARISCSGDNLRNYYAHWYQQKPGQAPVVVIYYDNNRPSGIPERFSGSNSGNTATLTISGTQAEDEADYYCQSWKDGVPVFGGGTKLTVLG | 0.34 µg/mL | – | 1.9 fold
2A8 HC I51E (Fab, V domains shown) VH: QVQLVESGGGLVQPGGSLRLSCAASGFTFRSYGMSWVRQAPGKGLEWVSSERGSSSSTYYADSVKGRFTISRDNSKNTLYLQMNSLRAEDTAVYYCARKYRYWFDYWGQGTLVTVSS VL: DIELTQPPSVSVAPGQTARISCSGDNLRNYYAHWYQQKPGQAPVVVIYYDNNRPSGIPERFSGSNSGNTATLTISGTQAEDEADYYCQSWDDGVPVFGGGTKLTVLG | 0.76 µg/mL | – | 0.9 fold
2A8 LC D91L (Fab, V domains shown) VH: QVQLVESGGGLVQPGGSLRLSCAASGFTFRSYGMSWVRQAPGKGLEWVSSIRGSSSSTYYADSVKGRFTISRDNSKNTLYLQMNSLRAEDTAVYYCARKYRYWFDYWGQGTLVTVSS VL: DIELTQPPSVSVAPGQTARISCSGDNLRNYYAHWYQQKPGQAPVVVIYYDNNRPSGIPERFSGSNSGNTATLTISGTQAEDEADYYCQSWLDGVPVFGGGTKLTVLG | 0.37 µg/mL | – | 1.7 fold
2A8 HC S31V (Fab, V domains shown) VH: QVQLVESGGGLVQPGGSLRLSCAASGFTFRVYGMSWVRQAPGKGLEWVSSIRGSSSSTYYADSVKGRFTISRDNSKNTLYLQMNSLRAEDTAVYYCARKYRYWFDYWGQGTLVTVSS VL: DIELTQPPSVSVAPGQTARISCSGDNLRNYYAHWYQQKPGQAPVVVIYYDNNRPSGIPERFSGSNSGNTATLTISGTQAEDEADYYCQSWDDGVPVFGGGTKLTVLG | 0.201 µg/mL | – | 3.5 fold
2A8 LC D91W (Fab, V domains shown) VH: QVQLVESGGGLVQPGGSLRLSCAASGFTFRSYGMSWVRQAPGKGLEWVSSIRGSSSSTYYADSVKGRFTISRDNSKNTLYLQMNSLRAEDTAVYYCARKYRYWFDYWGQGTLVTVSS VL: DIELTQPPSVSVAPGQTARISCSGDNLRNYYAHWYQQKPGQAPVVVIYYDNNRPSGIPERFSGSNSGNTATLTISGTQAEDEADYYCQSWWDGVPVFGGGTKLTVLG | 0.23 µg/mL | – | 3 fold
2A8 LC Y48F (Fab, V domains shown) VH: QVQLVESGGGLVQPGGSLRLSCAASGFTFRSYGMSWVRQAPGKGLEWVSSIRGSSSSTYYADSVKGRFTISRDNSKNTLYLQMNSLRAEDTAVYYCARKYRYWFDYWGQGTLVTVSS VL: DIELTQPPSVSVAPGQTARISCSGDNLRNYYAHWYQQKPGQAPVVVIFYDNNRPSGIPERFSGSNSGNTATLTISGTQAEDEADYYCQSWDDGVPVFGGGTKLTVLG | 0.34 µg/mL | – | 1.9 fold
2A8 HC S31P (Fab, V domains shown) VH: QVQLVESGGGLVQPGGSLRLSCAASGFTFRPYGMSWVRQAPGKGLEWVSSIRGSSSSTYYADSVKGRFTISRDNSKNTLYLQMNSLRAEDTAVYYCARKYRYWFDYWGQGTLVTVSS VL: DIELTQPPSVSVAPGQTARISCSGDNLRNYYAHWYQQKPGQAPVVVIYYDNNRPSGIPERFSGSNSGNTATLTISGTQAEDEADYYCQSWDDGVPVFGGGTKLTVLG | 0.33 µg/mL | – | 1.7 fold

Biological target: T1, recombinant TFPI of the FXa restoring …
Assay: cell-based or functional assay
Remark: another data set of the same source

Binder | EC50, FXa restoring assay | Improvement of EC50 vs 2A8 wt
2A8 wild-type Fab (Fab, V domains shown) VH: QVQLVESGGGLVQPGGSLRLSCAASGFTFRSYGMSWVRQAPGKGLEWVSSIRGSSSSTYYADSVKGRFTISRDNSKNTLYLQMNSLRAEDTAVYYCARKYRYWFDYWGQGTLVTVSS VL: DIELTQPPSVSVAPGQTARISCSGDNLRNYYAHWYQQKPGQAPVVVIYYDNNRPSGIPERFSGSNSGNTATLTISGTQAEDEADYYCQSWDDGVPVFGGGTKLTVLG | 7910 pM | 1 fold
2A8 HC K99L (Fab, V domains shown) VH: QVQLVESGGGLVQPGGSLRLSCAASGFTFRSYGMSWVRQAPGKGLEWVSSIRGSSSSTYYADSVKGRFTISRDNSKNTLYLQMNSLRAEDTAVYYCARLYRYWFDYWGQGTLVTVSS VL: DIELTQPPSVSVAPGQTARISCSGDNLRNYYAHWYQQKPGQAPVVVIYYDNNRPSGIPERFSGSNSGNTATLTISGTQAEDEADYYCQSWDDGVPVFGGGTKLTVLG | 1000 pM | 7.9 fold
2A8-127 (Fab, V domains shown) VH: QVQLVESGGGLVQPGGSLRLSCAASGFTFRSYGMDWVRQAPGKGLEWVSSIRGSSSSTYYADSVKGRFTISRDNSKNTLYLQMNSLRAEDTAVYYCARLYRYWFDYWGQGTLVTVSS VL: DIELTQPPSVSVAPGQTARISCSGDNLRNYYAHWYQQKPGQAPVVVIFYDVNRPSDIPERFSGSNSGNTATLTISGTQAEDEADYYCQSWDDGVPWFGGGTKLTVLG | 440 pM | 18.2 fold
2A8-143 (Fab, V domains shown) VH: QVQLVESGGGLVQPGGSLRLSCAASGFTFRSYGMDWVRQAPGKGLEWVSSIRGSRSSTYYADSVKGRFTISRDNSKNTLYLQMNSLRAEDTAVYYCARLYRYWFDYWGQGTLVTVSS VL: DIELTQPPSVSVAPGQTARISCSGDNLRNYYAHWYQQKPGQAPVVVIFYDVNRPSGIPERFSGSNSGNTATLTISGTQAEDEADYYCQSWLDGVPWFGGGTKLTVLG | 500 pM | 15.8 fold
2A8-200 (Fab, V domains shown) VH: QVQLVESGGGLVQPGGSLRLSCAASGFTFRSYGMDWVRQAPGKGLEWVSSIRGSRSSTYYADSVKGRFTISRDNSKNTLYLQMNSLRAEDTAVYYCARLYRYWFDYWGQGTLVTVSS VL: DIELTQPPSVSVAPGQTARISCSGDNLRNYYAHWYQQKPGQAPVVVIFYDVNRPSGIPERFSGSNSGNTATLTISGTQAEDEADYYCQSWWDGVPVFGGGTKLTVLG | 810 pM | 9.7 fold
2A8-216 (Fab, V domains shown) VH: QVQLVESGGGLVQPGGSLRLSCAASGFTFRVYGMSWVRQAPGKGLEWVSSDRGSRSSTYYADSVKGRFTISRDNSKNTLYLQMNSLRAEDTAVYYCARVYRYWFDYWGQGTLVTVSS VL: DIELTQPPSVSVAPGQTARISCSGDNLRNYYAHWYQQKPGQAPVVVIFYDNNRPSGIPERFSGSNSGNTATLTISGTQAEDEADYYCQSWLDGVPWFGGGTKLTVLG | 1080 pM | 7.3 fold
